Series [1] addresses T1, EcoP15I Res translocase (Tr) domain (UniProt Q5ZND2 1-705).
T1 sequence: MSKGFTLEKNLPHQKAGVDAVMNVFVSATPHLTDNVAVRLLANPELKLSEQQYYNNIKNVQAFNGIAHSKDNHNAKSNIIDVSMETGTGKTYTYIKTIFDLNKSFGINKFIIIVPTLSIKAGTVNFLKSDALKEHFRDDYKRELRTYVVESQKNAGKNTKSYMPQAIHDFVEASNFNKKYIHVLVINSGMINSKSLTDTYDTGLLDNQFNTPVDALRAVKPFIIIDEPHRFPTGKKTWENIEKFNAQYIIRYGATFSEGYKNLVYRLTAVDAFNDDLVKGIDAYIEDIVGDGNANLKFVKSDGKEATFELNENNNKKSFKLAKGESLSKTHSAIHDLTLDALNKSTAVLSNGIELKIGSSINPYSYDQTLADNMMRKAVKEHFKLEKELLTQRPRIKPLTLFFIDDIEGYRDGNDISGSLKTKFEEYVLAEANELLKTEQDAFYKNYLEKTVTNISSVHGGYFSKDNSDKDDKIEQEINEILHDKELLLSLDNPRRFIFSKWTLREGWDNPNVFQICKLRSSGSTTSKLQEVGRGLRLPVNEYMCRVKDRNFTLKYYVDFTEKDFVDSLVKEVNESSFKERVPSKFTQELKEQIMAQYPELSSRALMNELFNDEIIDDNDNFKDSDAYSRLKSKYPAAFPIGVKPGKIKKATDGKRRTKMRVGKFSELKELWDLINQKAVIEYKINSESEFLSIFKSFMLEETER
Put plainly: EMSA. A general note: Mobility shift assays separate free from complexed probe on a gel.

The target of series [2] is T2, EcoP15I Mod subunit;EcoP15I Res translocase (Tr) domain (Escherichia coli?;Escherichia coli?, UniProt P12364;Q5ZND2 1-644;1-705, |).
T2 sequence 1: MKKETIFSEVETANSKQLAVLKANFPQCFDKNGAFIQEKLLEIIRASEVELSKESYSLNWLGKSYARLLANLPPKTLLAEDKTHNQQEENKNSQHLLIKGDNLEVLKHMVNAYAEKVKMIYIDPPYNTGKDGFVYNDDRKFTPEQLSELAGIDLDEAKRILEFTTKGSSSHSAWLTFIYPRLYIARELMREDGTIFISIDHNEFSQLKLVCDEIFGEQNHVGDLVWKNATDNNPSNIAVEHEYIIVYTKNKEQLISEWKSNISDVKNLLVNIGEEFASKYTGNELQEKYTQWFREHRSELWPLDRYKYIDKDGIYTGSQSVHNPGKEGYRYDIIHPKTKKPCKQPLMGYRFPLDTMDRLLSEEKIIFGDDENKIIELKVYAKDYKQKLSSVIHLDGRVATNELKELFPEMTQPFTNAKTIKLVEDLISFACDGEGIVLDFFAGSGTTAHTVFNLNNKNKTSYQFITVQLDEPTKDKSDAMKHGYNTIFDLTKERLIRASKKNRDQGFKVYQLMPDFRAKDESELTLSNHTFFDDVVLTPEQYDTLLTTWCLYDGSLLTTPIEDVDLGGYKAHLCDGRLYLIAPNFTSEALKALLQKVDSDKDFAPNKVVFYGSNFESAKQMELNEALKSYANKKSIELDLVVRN
T2 sequence 2: T1 sequence
The experiment in a line: EMSA.

Series [3] addresses EcoP15I Mod subunit;EcoP15I Res subunit (Escherichia coli?;Escherichia coli?, UniProt P12364;Q5ZND2 1-644;1-970, |). Put plainly: EMSA.
Series [4] deals with T3, EcoP15I Res peptide 126-145 (spot B6) (UniProt Q5ZND2 126-145).
T3 chain: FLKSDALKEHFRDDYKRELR
The experiment in a line: peptide array.

In series [5] the target is T4, EcoP15I Res peptide 531-550 (spot F7) (UniProt Q5ZND2 531-550).
T4 chain: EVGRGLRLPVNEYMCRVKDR
Put plainly: peptide array.

For series [6], the target named is T5, EcoP15I Res strongest DNA-binding region (array peptides) (UniProt Q5ZND2 637-670).
T5 chain: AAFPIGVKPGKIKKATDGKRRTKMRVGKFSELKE
Put plainly: peptide array.

The series “AUC” concerns the molecule itself. Put plainly: AUC.
The target in series [7] is T6, EcoP15I Res subunit (earlier preparations from pACYC177, no affinity tag) (UniProt Q5ZND2 1-970).
T6 sequence (looked up): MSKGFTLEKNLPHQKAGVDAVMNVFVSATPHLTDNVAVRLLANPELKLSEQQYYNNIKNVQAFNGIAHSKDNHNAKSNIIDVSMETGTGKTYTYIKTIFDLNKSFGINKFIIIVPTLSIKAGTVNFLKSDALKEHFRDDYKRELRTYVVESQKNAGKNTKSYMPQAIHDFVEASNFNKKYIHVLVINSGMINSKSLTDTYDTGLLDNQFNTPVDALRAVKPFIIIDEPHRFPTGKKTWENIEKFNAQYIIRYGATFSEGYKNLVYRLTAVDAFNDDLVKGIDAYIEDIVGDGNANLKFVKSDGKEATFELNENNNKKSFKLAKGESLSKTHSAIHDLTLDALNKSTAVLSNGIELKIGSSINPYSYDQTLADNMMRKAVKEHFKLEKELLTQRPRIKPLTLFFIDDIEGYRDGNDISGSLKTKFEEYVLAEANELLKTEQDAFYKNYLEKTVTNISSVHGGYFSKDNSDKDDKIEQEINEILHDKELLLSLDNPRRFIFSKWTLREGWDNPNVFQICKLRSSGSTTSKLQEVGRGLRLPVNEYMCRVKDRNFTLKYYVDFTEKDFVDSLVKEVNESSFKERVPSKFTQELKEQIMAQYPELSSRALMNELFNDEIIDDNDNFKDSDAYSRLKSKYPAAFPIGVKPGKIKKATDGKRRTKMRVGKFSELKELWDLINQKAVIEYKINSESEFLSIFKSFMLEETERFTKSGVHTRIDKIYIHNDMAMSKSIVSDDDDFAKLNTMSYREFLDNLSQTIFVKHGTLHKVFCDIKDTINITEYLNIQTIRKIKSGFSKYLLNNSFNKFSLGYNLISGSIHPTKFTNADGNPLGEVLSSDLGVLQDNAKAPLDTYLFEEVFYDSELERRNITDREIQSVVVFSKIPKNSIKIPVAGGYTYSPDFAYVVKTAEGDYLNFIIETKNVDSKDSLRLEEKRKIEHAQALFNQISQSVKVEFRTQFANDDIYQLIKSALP
The experiment in a line: densitometry of SDS-PAGE of the purified enzyme.

Series [8] has as its target T7, EcoP15I Res subunit, C-terminally His6-tagged (from pQEP15) (UniProt Q5ZND2 1-970).
T7 sequence (looked up): T6 sequence (looked up)
The experiment in a line: second-derivative UV absorption spectroscopy.

Series [9] concerns the target T7, EcoP15I Res subunit, C-terminally …. The experiment in a line: SEC. For orientation: Size exclusion chromatography separates by hydrodynamic size, large species first.

Substitutions are numbered along the chain they refer to.

What is called Kd is the constant that tells how readily two partners part at equilibrium. What is called stoichiometry N is the number of molecules, sites or subunits per partner or assembly.

B1: SR60-1/SR60-1c, dsDNA one site (dsDNA)
DNA 1: GGTCGACGAACCGTAATCGTACCCAGCAGATATCGGTACCGTTCGGTAATATTCCGACGG
DNA 2: CCGTCGGAATATTACCGAACGGTACCGATATCTGCTGGGTACGATTACGGTTCGTCGACC
B1: the Kd in series [1] was 128 nM; in series [2], 121 nM; in series [3] it was 16 nM.

B2: SR60-1, ssDNA (ssDNA)
DNA: B1 DNA 1
On to B2, for which the Kd in [1] was found to be 268 nM; in [2], 346 nM; in series [3], 267 nM.

B3: SR60-0/SR60-0c, dsDNA no site (dsDNA)
DNA 1: B1 DNA 1 with C24G, G26A, A28C
DNA 2: B1 DNA 2 with T33G, C35T, G37C
As for B3, the Kd in series [1] amounted to 93 nM; in [2], 160 nM; in series [3], 37 nM.

B4: KW30-1/KW30-1c, specific dsDNA (dsDNA)
DNA 1: CGTAATCGTACCCAGCAGATATCGGTACCG
DNA 2: CGGTACCGATATCTGCTGGGTACGATTACG
As to B4, the values for the binding result in series [4], in [5] and in series [6] were “no binding”, “no binding” and “binds”, respectively.

B5: EcoP15I MTase (Mod subunit, C-terminally His-tagged) (enzyme, UniProt P12364 1-644, looked up)
chain: T2 sequence 1
B5: the “stoichiometry N” value in “AUC” is 2.

B6: EcoP15I Mod subunit (earlier preparations from pACYC177, no affinity tag) (natural protein, UniProt P12364 1-644, looked up)
chain: T2 sequence 1
Consider B6, for which the “stoichiometry N” value in series [7] was 1.8 ± 0.15 Mod:Res.

B7: EcoP15I Mod subunit (untagged, from pQEP15) (natural protein, UniProt P12364 1-644, looked up)
chain: T2 sequence 1
On to B7, for which the “stoichiometry N” value in [8] was 2 Mod:Res; in series [9], 1.8 Mod:Res. The “Mod:Res ratio in SEC peak 1” value in [9] is ~1 Mod:Res.

The values are drawn from article PMC3333885 (Nucleic Acids Research, 2011).
